# Data reported in patent US20190241648A1 (STATEN BIOTECHNOLOGY B V, published 2019).
# Ends that are not written are not given here.
# T1: ApoC3 peptide … G46A (human, also: cyclic constrained)
# T1 peptide: ARGWVTDAFSSLK
# T2: ApoC3 peptide … V43C (human, not fully specified; cyclic constrained)
# T2 peptide: ARGWCTDGFSSLK
# T3: ApoC3 peptide … L50C (human, not fully specified; cyclic constrained)
# T3 peptide: ARGWVTDGFSSCK
# T4: ApoC3 peptide … R40E (human, not fully specified (bridges); also: cyclic constrained)
# T4 peptide: AEGWVTDGFSSLK
# T5: ApoC3 peptide … S49E (human, cyclic constrained)
# T5 peptide: ARGWVTDGFSELK
# T6: ApoC3 peptide … L50F (human, not fully specified; cyclic constrained)
# T6 peptide: ARGWVTDGFSSFK
# T7: ApoC3 peptide … A39G (human, cyclic constrained)
# T7 peptide: GRGWVTDGFSSLK
# T8: ApoC3 peptide … V43H (human, not fully specified; cyclic constrained)
# T8 peptide: ARGWHTDGFSSLK
# T9: ApoC3 peptide … G46H (human, not fully specified (bridges); also: cyclic constrained)
# T9 peptide: ARGWVTDHFSSLK
# T10: ApoC3 peptide … L50H (human, not fully specified; cyclic constrained)
# T10 peptide: ARGWVTDGFSSHK
# T11: ApoC3 peptide … A39I (human, cyclic constrained)
# T11 peptide: IRGWVTDGFSSLK
# T12: ApoC3 peptide … G46I (human, not fully specified (bridges); also: cyclic constrained)
# T12 peptide: ARGWVTDIFSSLK
# T13: ApoC3 peptide … A39L (human, cyclic constrained)
# T13 peptide: LRGWVTDGFSSLK
# T14: ApoC3 peptide … G41M (human, also: cyclic constrained)
# T14 peptide: ARMWVTDGFSSLK
# T15: ApoC3 peptide … R40N (human, not fully specified (bridges); also: cyclic constrained)
# T15 peptide: ANGWVTDGFSSLK
# T16: ApoC3 peptide … T44N (human, not fully specified (bridges); also: cyclic constrained)
# T16 peptide: ARGWVNDGFSSLK
# T17: ApoC3 peptide … F47N (human, not fully specified (bridges); also: cyclic constrained)
# T17 peptide: ARGWVTDGNSSLK
# T18: ApoC3 peptide … K51N (human, not fully specified; cyclic constrained)
# T18 peptide: ARGWVTDGFSSLN
# T19: ApoC3 peptide … T44P (human, not fully specified (bridges); also: cyclic constrained)
# T19 peptide: ARGWVPDGFSSLK
# T20: ApoC3 peptide … D45P (human, cyclic constrained)
# T20 peptide: ARGWVTPGFSSLK
# T21: ApoC3 peptide … W42Q (human, not fully specified (bridges); also: cyclic constrained)
# T21 peptide: ARGQVTDGFSSLK
# T22: ApoC3 peptide … L50R (human, not fully specified (bridges); also: cyclic constrained)
# T22 peptide: ARGWVTDGFSSRK
# T23: ApoC3 peptide … K51R (human, not fully specified; cyclic constrained)
# T23 peptide: ARGWVTDGFSSLR
# T24: ApoC3 peptide … K51S (human, not fully specified; cyclic constrained)
# T24 peptide: ARGWVTDGFSSLS
# T25: ApoC3 peptide … A39T (human, not fully specified (bridges); also: cyclic constrained)
# T25 peptide: TRGWVTDGFSSLK
# T26: ApoC3 peptide … A39W (human, not fully specified (bridges); also: cyclic constrained)
# T26 peptide: WRGWVTDGFSSLK
# T27: ApoC3 peptide … R40Y (human, thioether (positions not given here); also: cyclic constrained)
# T27 peptide: AYGWVTDGFSSLK
# T28: ApoC3 peptide … W42Y (human, not fully specified (bridges); also: cyclic constrained)
# T28 peptide: ARGYVTDGFSSLK
# T29: ApoC3 peptide … F47Y (human, also: cyclic constrained)
# T29 peptide: ARGWVTDGYSSLK
# T30: ApoC3 peptide … S48Y (human, not fully specified (bridges); also: cyclic constrained)
# T30 peptide: ARGWVTDGFYSLK
# B1: anti-ApoC3 antibody 14C7 (antibody, V domains shown)
# VH: QVQVQESGPGLVKPSQTLSLTCTVSGGSITTNSYYWSWIRQPPGKGLEWMGAIDYSGDTYYSPSLKSRTSISRDTSKNQFTLQLTSVTPEDTAVYYCVSRIPTGEYWGQGTQVTVSS
# VL: QTVVTQEPSLSVSPGGTVTLTCGLNSGSVTSSNYPDWYQQTPGQAPRLLIYNTNSRHSGVPSRFSGSISGNKAALTITGAQPEDEADYYCALYMGSDSVVFGGGTHLTVL
# notes: it was detected with goat anti-human IgG (Fc); also called mAb 14C7; llama antibody 14C7
# Experiments:
# Test in all cases: peptide microarray
# ApoC3 peptide … G46A = target: T1, ApoC3 peptide … G46A
# In short: (§1)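 Peptide microarrays of ApoC3-derived peptides incubated with antibody samples, then stained with goat anti-human IgG (Fc) DyLight680 (1:5000) and anti-HA DyLight800 (1:2000) control. Read-out by fluorescence scanning at intensities 7/7 (red/green); a secondary-only pre-stain checked background, HA frame peptides served as quality control.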
# ApoC3 peptide … V43C = target: T2, ApoC3 peptide … V43C
# In short: as §1
# ApoC3 peptide … L50C = target: T3, ApoC3 peptide … L50C
# In short: as §1
# ApoC3 peptide … R40E = target: T4, ApoC3 peptide … R40E
# In short: as §1
# ApoC3 peptide … S49E = target: T5, ApoC3 peptide … S49E
# In short: as §1
# ApoC3 peptide … L50F = target: T6, ApoC3 peptide … L50F
# In short: as §1
# ApoC3 peptide … A39G = target: T7, ApoC3 peptide … A39G
# In short: as §1
# ApoC3 peptide … V43H = target: T8, ApoC3 peptide … V43H
# In short: as §1
# ApoC3 peptide … G46H = target: T9, ApoC3 peptide … G46H
# In short: as §1
# ApoC3 peptide … L50H = target: T10, ApoC3 peptide … L50H
# In short: as §1
# ApoC3 peptide … A39I = target: T11, ApoC3 peptide … A39I
# In short: as §1
# ApoC3 peptide … G46I = target: T12, ApoC3 peptide … G46I
# In short: as §1
# ApoC3 peptide … A39L = target: T13, ApoC3 peptide … A39L
# In short: as §1
# ApoC3 peptide … G41M = target: T14, ApoC3 peptide … G41M
# In short: as §1
# ApoC3 peptide … R40N = target: T15, ApoC3 peptide … R40N
# In short: as §1
# ApoC3 peptide … T44N = target: T16, ApoC3 peptide … T44N
# In short: as §1
# ApoC3 peptide … F47N = target: T17, ApoC3 peptide … F47N
# In short: as §1
# ApoC3 peptide … K51N = target: T18, ApoC3 peptide … K51N
# In short: as §1
# ApoC3 peptide … T44P = target: T19, ApoC3 peptide … T44P
# In short: as §1
# ApoC3 peptide … D45P = target: T20, ApoC3 peptide … D45P
# In short: as §1
# ApoC3 peptide … W42Q = target: T21, ApoC3 peptide … W42Q
# In short: as §1
# ApoC3 peptide … L50R = target: T22, ApoC3 peptide … L50R
# In short: as §1
# ApoC3 peptide … K51R = target: T23, ApoC3 peptide … K51R
# In short: as §1
# ApoC3 peptide … K51S = target: T24, ApoC3 peptide … K51S
# In short: as §1
# ApoC3 peptide … A39T = target: T25, ApoC3 peptide … A39T
# In short: as §1
# ApoC3 peptide … A39W = target: T26, ApoC3 peptide … A39W
# In short: as §1
# ApoC3 peptide … R40Y = target: T27, ApoC3 peptide … R40Y
# In short: as §1
# ApoC3 peptide … W42Y = target: T28, ApoC3 peptide … W42Y
# In short: as §1
# ApoC3 peptide … F47Y = target: T29, ApoC3 peptide … F47Y
# In short: as §1
# ApoC3 peptide … S48Y = target: T30, ApoC3 peptide … S48Y
# In short: as §1
binder,measurement,setting,value
B1,% of binding to wild-type peptide,ApoC3 peptide … G46A,0%
same,% of binding to wild-type peptide,ApoC3 peptide … V43C,0.12%
same,% of binding to wild-type peptide,ApoC3 peptide … L50C,0%
same,% of binding to wild-type peptide,ApoC3 peptide … R40E,76.9%
same,% of binding to wild-type peptide,ApoC3 peptide … S49E,0%
same,% of binding to wild-type peptide,ApoC3 peptide … L50F,56.6%
same,% of binding to wild-type peptide,ApoC3 peptide … A39G,93%
same,% of binding to wild-type peptide,ApoC3 peptide … V43H,14.6%
same,% of binding to wild-type peptide,ApoC3 peptide … G46H,1.81%
same,% of binding to wild-type peptide,ApoC3 peptide … L50H,0%
same,% of binding to wild-type peptide,ApoC3 peptide … A39I,52.3%
same,% of binding to wild-type peptide,ApoC3 peptide … G46I,0%
same,% of binding to wild-type peptide,ApoC3 peptide … A39L,77.5%
same,% of binding to wild-type peptide,ApoC3 peptide … G41M,18.7%
same,% of binding to wild-type peptide,ApoC3 peptide … R40N,64.8%
same,% of binding to wild-type peptide,ApoC3 peptide … T44N,2.49%
same,% of binding to wild-type peptide,ApoC3 peptide … F47N,0.06%
same,% of binding to wild-type peptide,ApoC3 peptide … K51N,2.6%
same,% of binding to wild-type peptide,ApoC3 peptide … T44P,0%
same,% of binding to wild-type peptide,ApoC3 peptide … D45P,0%
same,% of binding to wild-type peptide,ApoC3 peptide … W42Q,93.1%
same,% of binding to wild-type peptide,ApoC3 peptide … L50R,0%
same,% of binding to wild-type peptide,ApoC3 peptide … K51R,57.4%
same,% of binding to wild-type peptide,ApoC3 peptide … K51S,27.5%
same,% of binding to wild-type peptide,ApoC3 peptide … A39T,88.7%
same,% of binding to wild-type peptide,ApoC3 peptide … A39W,59.4%
same,% of binding to wild-type peptide,ApoC3 peptide … R40Y,37.5%
same,% of binding to wild-type peptide,ApoC3 peptide … W42Y,149%
same,% of binding to wild-type peptide,ApoC3 peptide … F47Y,67.7%
same,% of binding to wild-type peptide,ApoC3 peptide … S48Y,5.83%
